Broadly, the koff is a measure of how fast the partners let go of each other. The term kon denotes the rate constant with which the complex forms.

Assay [1] addresses T1, recombinant human FAP (R&D systems) (human, UniProt Q12884 26-760).
T1 construct: Bought protein amine-coupled at low density on a CM5 chip for SPR; also called rhuFAP; rFAP
T1 sequence (looked up): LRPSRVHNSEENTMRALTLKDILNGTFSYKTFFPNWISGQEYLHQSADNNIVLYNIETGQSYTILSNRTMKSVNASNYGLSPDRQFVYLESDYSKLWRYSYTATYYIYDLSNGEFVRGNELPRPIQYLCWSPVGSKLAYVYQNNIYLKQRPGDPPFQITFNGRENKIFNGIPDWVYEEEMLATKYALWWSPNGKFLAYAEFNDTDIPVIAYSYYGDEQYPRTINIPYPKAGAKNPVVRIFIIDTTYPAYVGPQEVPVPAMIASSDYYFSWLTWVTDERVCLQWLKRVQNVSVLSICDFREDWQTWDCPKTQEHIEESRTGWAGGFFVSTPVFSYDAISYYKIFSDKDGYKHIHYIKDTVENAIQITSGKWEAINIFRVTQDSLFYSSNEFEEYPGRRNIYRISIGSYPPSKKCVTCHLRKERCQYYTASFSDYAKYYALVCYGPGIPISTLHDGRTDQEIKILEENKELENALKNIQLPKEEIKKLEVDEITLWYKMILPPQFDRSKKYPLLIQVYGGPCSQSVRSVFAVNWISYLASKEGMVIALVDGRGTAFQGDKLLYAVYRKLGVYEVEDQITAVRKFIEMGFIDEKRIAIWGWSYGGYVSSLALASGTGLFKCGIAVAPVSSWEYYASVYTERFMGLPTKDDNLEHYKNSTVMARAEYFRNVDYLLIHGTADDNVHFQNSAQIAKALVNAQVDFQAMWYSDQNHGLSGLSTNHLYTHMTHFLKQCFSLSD
Nature of the assay: SPR (BIAcore), Fab 6.25-200 nM injected over rhuFAP on a CM5 chip, heterogeneous ligand model [box under the right panel]. Here is the method:
(§1) Purified Fabs were injected at the concentrations indicated in the figure on a rhuFAP-coated CM5 sensor chip. Values were corrected for binding to the reference flow cell. The black solid lines represent the theoretical curves for each Fab concentration calculated according to the heterogeneous ligand model and the indicated rate and affinity constants.
(§2) Binding analysis of Fabs to recombinant FAP (R&D systems) was performed on a BIAcore T100 instrument. rFAP was immobilized at low density on a CM5 sensor chip using amine coupling chemistry. […] Analysis of the binding curves and determination of rate constants was done using the nonlinear data analysis program BIAevaluation.

Assay [2] deals with T1, recombinant human FAP (R&D systems). Nature of the assay: SPR (BIAcore T100), Fab injected over rhuFAP on a low-density CM5 chip. Here is the method:
as §2
In general terms: In SPR one partner is held on a chip, and binding of the other changes the refractive index at the surface.

In assay [3] the target is T2, murine FAP expressed on HEK293 cells (mouse, UniProt P97321 1-761).
T2 construct: whole, on cells; Also used as cell lysate in ELISA; also called muFAP; mouse FAP
T2 sequence (looked up): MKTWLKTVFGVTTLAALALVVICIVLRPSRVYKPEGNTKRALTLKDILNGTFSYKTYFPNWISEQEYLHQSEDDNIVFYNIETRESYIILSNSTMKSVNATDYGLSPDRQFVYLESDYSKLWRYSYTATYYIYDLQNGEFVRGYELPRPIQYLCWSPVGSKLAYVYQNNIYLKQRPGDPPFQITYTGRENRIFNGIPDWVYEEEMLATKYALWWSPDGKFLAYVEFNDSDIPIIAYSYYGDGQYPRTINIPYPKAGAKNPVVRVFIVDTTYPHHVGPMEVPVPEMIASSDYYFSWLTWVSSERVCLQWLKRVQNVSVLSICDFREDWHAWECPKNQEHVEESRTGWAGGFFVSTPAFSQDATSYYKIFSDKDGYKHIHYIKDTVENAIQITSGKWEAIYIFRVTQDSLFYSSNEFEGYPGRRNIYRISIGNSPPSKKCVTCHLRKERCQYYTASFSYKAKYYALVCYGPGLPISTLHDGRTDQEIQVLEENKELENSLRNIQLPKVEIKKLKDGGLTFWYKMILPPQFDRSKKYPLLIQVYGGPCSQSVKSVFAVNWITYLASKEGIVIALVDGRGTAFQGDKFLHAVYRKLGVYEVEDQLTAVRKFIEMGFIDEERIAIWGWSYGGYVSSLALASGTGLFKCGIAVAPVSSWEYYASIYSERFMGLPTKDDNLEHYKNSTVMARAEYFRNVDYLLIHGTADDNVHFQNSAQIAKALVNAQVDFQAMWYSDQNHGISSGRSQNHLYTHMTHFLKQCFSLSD
Nature of the assay: flow cytometry, serial dilutions on 293 muFAP+ cells (apparent KD). Here is the method:
The cells were then washed once with PBS, fixed for 20 min with 2% PFA on ice and bound antibody was detected with PE-conjugated anti-human IgG F(ab)′₂ (Jackson Immuno Research 109-116-097). Cells were analyzed on a FACScan (BD) cytometer and data was analysed with FlowJo. The apparent Kapp was calculated by fitting a dose-response curve using the following equitation f=Bmax*abs(x)/(Kd+abs(x))+Ns*x using SigmaPlot software (Systat Software Inc.).
Background: A flow cytometer gives signals particle by particle.

Assay [4] addresses T3, human DPPIV/CD26 expressed on HEK293 cells (human, UniProt P27487 1-766).
T3 construct: whole, on cells; also called huCD26; dipeptidyl peptidase IV
The experiment in a line: ELISA, Fab at 100 nM on plates coated with cell lysate. For orientation: ELISA stands for enzyme-linked immunosorbent assay.

For assay [5], the target named is T4, human Fibroblast Activation Protein (FAP) expressed on cells (human, UniProt Q12884 1-760).
T4 construct: whole, on cells; also called huFAP; human FAP
T4 sequence (looked up): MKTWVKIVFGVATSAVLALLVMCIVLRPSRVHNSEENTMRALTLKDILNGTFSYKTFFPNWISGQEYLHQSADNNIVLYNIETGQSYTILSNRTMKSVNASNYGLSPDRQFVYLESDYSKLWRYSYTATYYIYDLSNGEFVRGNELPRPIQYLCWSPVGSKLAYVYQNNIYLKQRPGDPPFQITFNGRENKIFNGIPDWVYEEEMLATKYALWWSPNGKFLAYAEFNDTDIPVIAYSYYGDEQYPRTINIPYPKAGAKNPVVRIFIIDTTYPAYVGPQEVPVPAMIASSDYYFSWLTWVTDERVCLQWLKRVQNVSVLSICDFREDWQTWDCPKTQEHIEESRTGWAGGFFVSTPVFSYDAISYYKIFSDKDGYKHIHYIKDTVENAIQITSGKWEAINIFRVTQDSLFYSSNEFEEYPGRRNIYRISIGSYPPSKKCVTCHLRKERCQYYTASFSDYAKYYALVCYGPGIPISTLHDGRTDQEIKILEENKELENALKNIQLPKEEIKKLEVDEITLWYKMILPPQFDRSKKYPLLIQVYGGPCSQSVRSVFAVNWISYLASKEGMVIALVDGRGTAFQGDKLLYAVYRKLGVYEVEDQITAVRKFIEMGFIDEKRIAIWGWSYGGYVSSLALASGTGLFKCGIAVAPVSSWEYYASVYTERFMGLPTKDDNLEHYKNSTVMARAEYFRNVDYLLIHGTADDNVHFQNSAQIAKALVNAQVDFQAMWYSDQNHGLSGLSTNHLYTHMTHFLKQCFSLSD
Nature of the assay: flow cytometry, serial dilutions on human FAP expressing cells (apparent KD).

Assay [6] concerns the target T1, recombinant human FAP (R&D systems). The experiment in a line: SPR (BIAcore), Fab 0.5-16 nM injected over rhuFAP on a CM5 chip, heterogeneous ligand model [box under the left panel]. The procedure:
as §1, §2

Positions count from the first letter of the chain named.

T3 sequence (P27487 whole entry): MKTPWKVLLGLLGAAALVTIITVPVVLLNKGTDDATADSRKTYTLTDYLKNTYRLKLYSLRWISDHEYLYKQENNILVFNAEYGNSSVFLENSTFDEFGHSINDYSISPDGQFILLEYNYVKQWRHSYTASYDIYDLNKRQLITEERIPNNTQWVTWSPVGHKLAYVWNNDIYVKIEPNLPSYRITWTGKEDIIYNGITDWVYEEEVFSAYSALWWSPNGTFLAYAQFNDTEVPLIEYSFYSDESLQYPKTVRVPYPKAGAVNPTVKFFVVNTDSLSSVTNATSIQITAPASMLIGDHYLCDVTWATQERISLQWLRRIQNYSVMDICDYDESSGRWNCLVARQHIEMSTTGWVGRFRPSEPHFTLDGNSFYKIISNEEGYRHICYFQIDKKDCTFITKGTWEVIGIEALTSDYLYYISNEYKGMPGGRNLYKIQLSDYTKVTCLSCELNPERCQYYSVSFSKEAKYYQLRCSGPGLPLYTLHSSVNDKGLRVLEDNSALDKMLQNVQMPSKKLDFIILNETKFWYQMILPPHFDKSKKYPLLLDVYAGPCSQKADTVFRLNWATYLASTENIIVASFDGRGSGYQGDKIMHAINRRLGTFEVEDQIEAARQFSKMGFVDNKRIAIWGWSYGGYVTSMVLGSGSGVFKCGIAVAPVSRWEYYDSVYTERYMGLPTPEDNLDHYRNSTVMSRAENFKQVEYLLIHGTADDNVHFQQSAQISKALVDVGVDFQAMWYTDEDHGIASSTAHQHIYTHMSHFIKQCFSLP

B1: ESC14 Fab fragment (Fab, V domains shown)
VH: EVQLVQSGAEVKKPGASVKVSCKASGYTFTSYGISWVRQAPGQGLEWMGWISAYNGNTNYAQKLQGRVTMTTDTSTSTAYMELRSLRSDDTAVYYCARDWSRSGYYLPDYWGQGTLVTVSS
VL: DVVMTQSPLSLPVTLGQPASISCRSSQSLLHSNGYNYLDWYLQRPGQSPHLLIFLGSNRASGVPDRFSGSGSGTDFTLKISRVEAEDVGIYYCMQALQTPPTFGQGTKVEIK
notes: Fully human Fab from a non-immunized phage library, made in E. coli TG-1, His-tag purified and detected by its myc tag; also called Fab ESC14
For the molecule B1, in assay [1], the off-rate constant (koff) came to 0.125 s⁻¹ and the kon turned out to be 560000 M⁻¹ s⁻¹. In addition, in assay [2], the Kd was found to be 0.21 µM. The Kd in assay [3] amounted to 0.251 µM. For the same molecule, the binding result in assay [4] was “no binding (tested: 100 nM)”.

B2: ESC14 IgG1 (antibody, V domains shown)
VH: B1 VH
VL: B1 VL
notes: Variable domains cloned into a full human IgG1 format and produced in NS0 cells
Turning to B2, the Kd in assay [5] was found to be 0.0011 µM.

B3: ESC11 IgG1 (antibody, V domains shown)
VH: QVQLQESGPGLVKPSETLSLTCTVSGGSISSNNYYWGWIRQTPGKGLEWIGSIYYSGSTNYNPSLKSRVTISVDTSKNQFSLKLSSVTAADTAVYYCARGARWQARPATRIDGVAFDIWGQGTMVTVSS
VL: ETTLTQSPGTLSLSPGERATLSCRASQTVTRNYLAWYQQKPGQAPRLLMYGASNRAAGVPDRFSGSGSGTDFTLTISRLEPEDFAVYYCQQFGSPYTFGQGTKVEIK
notes: Variable domains cloned into a full human IgG1 format (modified pEE12.4 vector) and produced in NS0 cells; also called ESC11 DyLight 488
For the molecule B3, the Kd in assay [5] turned out to be 0.0011 µM.

B4: ESC11 Fab fragment (Fab, V domains shown)
VH: B3 VH with Q1H
VL: B3 VL
notes: Fully human Fab from a non-immunized phage library, made in E. coli TG-1, His-tag purified and detected by its myc tag; also called Fab ESC11
Consider B4, for which the koff in assay [6] was 0.017 s⁻¹. Besides, in assay [6], the kon worked out at 1.6e+06 M⁻¹ s⁻¹. Further, the Kd in assay [2] was 0.01 µM; in assay [3], 0.051 µM. Moreover, the binding result in assay [4] is reported as “no binding (tested: 100 nM)”.

The values above are taken from patent US20120258119A1 (LUDWIG INSTITUTE FOR CANCER RESEARCH, published 2012).
